This passage reports Kd results from article PMC6232179 (2018).

The target in assay [1] is T1, His-tagged ER luminal domain of IRE1α (IRE1-NLD-His6-KDEL) (red fluorescent tag, covalently labelled (only in the MST of Figure 4C)).
T1 chain: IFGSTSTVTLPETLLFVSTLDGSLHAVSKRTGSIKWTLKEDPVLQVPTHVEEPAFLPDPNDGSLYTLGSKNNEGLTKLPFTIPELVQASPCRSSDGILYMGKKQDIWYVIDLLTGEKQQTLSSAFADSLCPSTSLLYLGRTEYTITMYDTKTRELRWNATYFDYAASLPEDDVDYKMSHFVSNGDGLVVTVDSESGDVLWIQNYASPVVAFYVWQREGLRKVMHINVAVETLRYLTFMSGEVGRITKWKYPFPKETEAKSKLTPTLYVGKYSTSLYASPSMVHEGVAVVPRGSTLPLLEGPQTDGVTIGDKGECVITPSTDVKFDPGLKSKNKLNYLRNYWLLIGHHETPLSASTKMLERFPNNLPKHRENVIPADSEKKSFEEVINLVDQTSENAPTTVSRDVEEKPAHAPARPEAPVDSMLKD
The experiment in a line: SPR.

Assay [2] addresses T1, His-tagged ER luminal domain of IRE1α …. The assay is described as follows: MST; COX-2 labelled.
Assay [3] has the same target. The assay is described as follows: MST; IRE1-NLD labelled.

Usually Kd stands for the equilibrium constant for the complex coming apart. Read a high Kd as weaker binding.

B1: PDIA6 (protein)
chain: LYSSSDDVIELTPSNFNREVIQSDSLWLVEFYAPWCGHCQRLTPEWKKAATALKDVVKVGAVDADKHHSLGGQYGVQGFPTIKIFGSNKNRPEDYQGGRTGEAIVDAALSALRQLVKDRLGGRSGGYSSGKQGRSDSSSKKDVIELTDDSFDKNVLDSEDVWMVEFYAPWCGHCKNLEPEWAAAASEVKEQTKGKVKLAAVDATVNQVLASRYGIRGFPTIKIFQKGESPVDYDGGRTRSDIVSRALDLFSDNAPPPELLEIINEDIAKRTCEEHQLCVVAVLPHILDTGAAGRNSYLEVLLKLADKYKKKMWGWLWTEAGAQSELETALGIGGFGYPAMAAINARKMKFALLKGSFSEQGINEFLRELSFGRGSTAPVGGGAFPTIVEREPWDGRDGELPVEDDIDLSDVELDDLGKDEL
Molecule B1 returned a Kd in assay [1] of 3530 nM.

B2: BiP (protein)
chain: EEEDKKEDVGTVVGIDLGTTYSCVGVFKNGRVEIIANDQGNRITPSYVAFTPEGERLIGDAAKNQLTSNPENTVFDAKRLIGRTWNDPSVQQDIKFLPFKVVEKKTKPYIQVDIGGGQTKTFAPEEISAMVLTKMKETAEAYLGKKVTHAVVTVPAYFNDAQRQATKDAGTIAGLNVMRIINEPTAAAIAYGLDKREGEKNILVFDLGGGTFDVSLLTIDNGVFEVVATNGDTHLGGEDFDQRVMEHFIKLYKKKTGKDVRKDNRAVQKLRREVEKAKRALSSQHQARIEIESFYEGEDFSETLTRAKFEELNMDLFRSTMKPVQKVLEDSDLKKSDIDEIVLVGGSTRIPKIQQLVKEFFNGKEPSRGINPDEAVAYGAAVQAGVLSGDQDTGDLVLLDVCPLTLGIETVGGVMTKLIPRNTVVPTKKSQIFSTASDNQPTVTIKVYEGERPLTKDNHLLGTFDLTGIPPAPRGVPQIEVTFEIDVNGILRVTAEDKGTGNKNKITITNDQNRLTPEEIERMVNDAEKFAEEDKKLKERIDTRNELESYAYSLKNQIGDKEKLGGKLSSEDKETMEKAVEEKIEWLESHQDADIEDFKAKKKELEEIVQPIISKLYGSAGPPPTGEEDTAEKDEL
Molecule B2 had a Kd in assay [1] of 1660 nM. This Kd lies about 2.1-fold lower than the previous one.

B3: COX-2 (prostaglandin endoperoxide synthase 2, PTGS2), purified His-tagged protein (enzyme)
chain: ANPCCSHPCQNRGVCMSVGFDQYKCDCTRTGFYGENCSTPEFLTRIKLFLKPTPNTVHYILTHFKGFWNVVNNIPFLRNAIMSYVLTSRSHLIDSPPTYNADYGYKSWEAFSNLSYYTRALPPVPDDCPTPLGVKGKKQLPDSNEIVEKLLLRRKFIPDPQGSNMMFAFFAQHFTHQFFKTDHKRGPAFTNGLGHGVDLNHIYGETLARQRKLRLFKDGKMKYQIIDGEMYPPTVKDTQAEMIYPPQVPEHLRFAVGQEVFGLVPGLMMYATIWLREHNRVCDVLKQEHPEWGDEQLFQTSRLILIGETIKIVIEDYVQHLSGYHFKLKFDPELLFNKQFQYQNRIAAEFNTLYHWHPLLPDTFQIHDQKYNYQQFIYNNSILLEHGITQFVESFTRQIAGRVAGGRNVPPAVQKVSQASIDQSRQMKYQSFNEYRKRFMLKPYESFEELTGEKEMSAELEALYGDIDAVELYPALLVEKPRPDAIFGETMVEVGAPFSLKGLMGNVICSPAYWKPSTFGGEVGFQIINTASIQSLICNNVKGCPFTSFSVPDPELIKTVTINASSSRSGLDDINPTVLLKERSTEL
modifications: red fluorescent tag, covalently labelled (only in the MST of Figure 4B)
Consider B3, for which the Kd in assay [2] stood at 138 nM; in assay [3] it was 155 nM.
